To fix the notation:
B1: Hairpin Ribozyme (parent)
chain: GUCCUCUUUCACGUGCGCGUGAAAGAGAGAAGUGAACCAGAGAAACACACGUUGUGGUAUAUUACCUGGUA

In this data set the parent is B1. Description: self-cleavage, relative activity (ratio to wild type); higher = more cleavage; co-transcriptional.
Take GUCCUCUUUCACGUACGCGUGAAAGAGAGAAGUGAACCAGAGAAACACACGUUGUAGUAUAUUACCUGGUA [G15A G56A]: the self-cleavage amounted to 0.135. With GUCCUCUUUCACGUACGCGUGAAAGAGAGAAGUGAACCAGAGAAACACACGUUGUCGUAUAUUACCUGGUA [G15A G56C], the self-cleavage was determined as 0.172. For the variant GUCCUCUUUCACGUACGCGUGAAAGAGAGAAGUGAACCAGAGAAACACACGUUGUGGUAUAUUACCUGGUU [G15A A71U], the self-cleavage was 0.785. With GUCCUCUUUCACGUCCGCGUGAAAGAGAGAAGUGUACCAGAGAAACACACGUUGUGGUAUAUUACCUGGUA [G15C A35U] the figure was 0.703. With GUCCUCUUUCACGUCCGCGUGAAAGAGAGAAGUGCACCAGAGAAACACACGUUGUGGUAUAUUACCUGGUA [G15C A35C], the self-cleavage stood at 0.628. With GUCCUCUUUCACGUCCGCGUGAAAGAGAGCAGUGAACCAGAGAAACACACGUUGUGGUAUAUUACCUGGUA [G15C A30C] the figure was 0.377; with GUCCUCUUUCACGUCCGCGUGAAAGAGAGGAGUGAACCAGAGAAACACACGUUGUGGUAUAUUACCUGGUA [G15C A30G], 0.198; with GUCCUCUUUCACGUCCGCGUGAGAGAGAGAAGUGAACCAGAGAAACACACGUUGUGGUAUAUUACCUGGUA [G15C A23G], 1.05.

Consider GUCCUCUUUCACGUACGCUUGAAAGAGAGAAGUGAACCAGAGAAACACACGUUGUGGUAUAUUACCUGGUA [G15A G19U], for which the self-cleavage was 0.942. With GUCCUCUUUCACGUACGCCUGAAAGAGAGAAGUGAACCAGAGAAACACACGUUGUGGUAUAUUACCUGGUA [G15A G19C] the figure was 0.856. In the case of GUCCUCUUUCACGUACGCAUGAAAGAGAGAAGUGAACCAGAGAAACACACGUUGUGGUAUAUUACCUGGUA [G15A G19A] it was 0.898.

In the case of GUCCUCUUUCACGUACGCGUGAAAGAUAGAAGUGAACCAGAGAAACACACGUUGUGGUAUAUUACCUGGUA [G15A G27U], the self-cleavage was 0.373. Consider GUCCUCUUUCACGUCCGCGUGAAAGAGAGAAGUGAACCAGAGAAACACACGUUGUGGUAUCUUACCUGGUA [G15C A61C], for which the self-cleavage stood at 0.0894. In the case of GUCCUCUUUCACGUACGCGUGAAAGAGAGAAGUGAACCAGAGAAACACACAUUGUGGUAUAUUACCUGGUA [G15A G51A] it was 1.21. On to GUCCUCUUUCACGUACGCGUGAAAGAGAGAAGUGAACCAGAGAAACACACGUUGUGGUGUAUUACCUGGUA [G15A A59G], for which the self-cleavage worked out at 0.111.

Regarding GUCCUCUUUCACGUACACGUGAAAGAGAGAAGUGAACCAGAGAAACACACGUUGUGGUAUAUUACCUGGUA [G15A G17A], the self-cleavage came out at 0.87. In the case of GUCCUCUUUCACGUCCGCGUGAAAGAGAGAAGUGAACCAGAGAAACACACGUUGUGGUAUAUUACCUGGUG [G15C A71G] it was 0.98; in that of GUCCUCUUUCACGUACGCGUGAAAGAGAGAAGUGAACCAGAGAAACACACGUCGUGGUAUAUUACCUGGUA [G15A U53C], 0.907; in that of GUCCUCUUUCACGUACGCGUGAAAGAGAGAAGUGAACCAGAGAGACACACGUUGUGGUAUAUUACCUGGUA [G15A A44G], 0.139.

As for GUCCUCUUUCACGUCCGCGUGAAAGAGUGAAGUGAACCAGAGAAACACACGUUGUGGUAUAUUACCUGGUA [G15C A28U], the self-cleavage was 0.74. In the case of GUCCUCUUUCACGUACGCGUGAAAGAGAGAAGUGAACCAGAGAAACACACGUUGUGGUAUAUUAGCUGGUA [G15A C65G] it was 0.326; in that of GUCCUCUUUCACGUACGCGUGAAAGAGAGAAGUGAACCAGAGAAACACACGUUGUGGUAUAUUAUCUGGUA [G15A C65U], 0.235. With GUCCUCUUUCACGUACGCGUGAAAGAGAGAAGUGAACCAGAGAAACACACGUUGUGGUAUAUUGCCUGGUA [G15A A64G] the figure was 0.528; with GUCCUCUUUCACGUACGCGUGAAAGAGAGAAGUGAACCAGAGAAACACACGUUCUGGUAUAUUACCUGGUA [G15A G54C], 0.364.

For the variant GUCCUCUUUCACGUACGCGUGAAAGAGAGAAGUGAACCAGAGAAACACACGUUAUGGUAUAUUACCUGGUA [G15A G54A], the self-cleavage turned out to be 0.572. GUCCUCUUUCACGUCCGCGUGAAAGAGAGAAGUGAACCAGAGAAAGACACGUUGUGGUAUAUUACCUGGUA [G15C C46G]: the self-cleavage is 0.0585. In the case of GUCCUCUUUCACGUCCGCGUGAAAGAGAGAAGUGAACCAGAGCAACACACGUUGUGGUAUAUUACCUGGUA [G15C A43C] it was 0.225. In the case of GUCCUCUUUCACGUAGGCGUGAAAGAGAGAAGUGAACCAGAGAAACACACGUUGUGGUAUAUUACCUGGUA [G15A C16G] it was 1.04; in that of GUCCUCUUUCACGUAAGCGUGAAAGAGAGAAGUGAACCAGAGAAACACACGUUGUGGUAUAUUACCUGGUA [G15A C16A], 0.881.

For the variant GUCCUCUUUCACGUACGCGUGAAAGAGAGAAGUGAACCAGAGAAACACACGUUGUGGUAUCUUACCUGGUA [G15A A61C], the self-cleavage stood at 0.161. In the case of GUCCUCUUUCACGUACGCGUGAAAGAGAGAAGUGAACCAGAGAAACACACGUUGUGGUAUUUUACCUGGUA [G15A A61U], the self-cleavage amounted to 0.283. In the case of GUCCUCUUUCACGUACGCGUGAAAGAGAGAAGUGAACCAGAGAAACACACGUUGUGGUAUAUUACCUGCUA [G15A G69C] it was 0.31. GUCCUCUUUCACGUACGCGUGAAAGAGAGAAGUGAACCAGAGAAACACACGUUGUGCUAUAUUACCUGGUA [G15A G57C]: the self-cleavage was determined as 0.101. With GUCCUCUUUCACGUACGCGUGAAAGAGAGAAGUGAACCAGAGAAACACACGUUGUGAUAUAUUACCUGGUA [G15A G57A] the figure was 0.167; with GUCCUCUUUCACGUACGCGUGAAAGAGAAAAGUGAACCAGAGAAACACACGUUGUGGUAUAUUACCUGGUA [G15A G29A], 0.118.

As for GUCCUCUUUCACGUACGCGUGAAAGAGAGAAGUGAACCAGAGAAACACACGUUGUGGCAUAUUACCUGGUA [G15A U58C], the self-cleavage was determined as 1.03. Consider GUCCUCUUUCACGUCGGCGUGAAAGAGAGAAGUGAACCAGAGAAACACACGUUGUGGUAUAUUACCUGGUA [G15C C16G], for which the self-cleavage turned out to be 1.06. With GUCCUCUUUCACGUCCGCGUGAAAGUGAGAAGUGAACCAGAGAAACACACGUUGUGGUAUAUUACCUGGUA [G15C A26U] the figure was 0.777.

The record behind these values is the RNAGym collection of RNA variant scans (doi:10.7554/elife.80360).
